Source: the nanobody polyreactivity screen of Harvey et al. (2022)

Assay: yeast display, Sf9 membrane polyspecificity reagent, FACS + sequencing; frameworks hold sequencing errors
In short: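 Nanobodies came from a synthetic yeast display library in Saccharomyces cerevisiae BJ5465, induced with galactose for 36–48 hours and stained for 1 hour at 4 °C with 10% biotinylated, detergent-solubilized Sf9 membrane reagent. Cells were enriched on streptavidin microbeads and then FACS-sorted, with low and high (top ~1%) gates set on anti-HA fluorescence for expression and streptavidin fluorescence for reagent binding. Each polyreactivity label reflects the gate a clone came from. Genes were amplified by colony PCR, sequenced by MiSeq 2 × 250 and filtered by CDR length.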

| Sequence | polyreactivity (PSR sort gate) |
| --- | --- |
| QVQLVESGGGLVQAGGSLRLSCAASGSILGDYAMGWDRQAPGKEREFVAAIDGSDGSTYYADSVKGRFTISRDNAKNTVYLQMNILKPEDTEVYYCAATDYDTYRSSWYVYWGQCTQVTVSS | low polyreactivity |
| QVQLVESGGGLVQAGGSLRLSCAASGRIFTVFGMGWYRQAPGKERELVAAISWSGGGTYYADSVKGRFTISRDNAKNTVYLQMNSLKPEDTAVYYCNAVRQYTWSLVFFSSDYDYWGQGTQVTVSS | low polyreactivity |
| QVQLVESGGGLVQAGGSLRLSCAASGFTFLAYSMGWYRQAPGKERELVAAIRWSGRRTYYADSVKGRFTISRDNAKNTVYLQMNSLKPEDTAVYYCAADTRRVREYNYWGQGTQVTVSS | low polyreactivity |
| QVQLVESGGGLVQAGGSLRLSCAASGSTFYAYVMGWYRQAPGKERELVAAIRSSGGRTYYADSVKGRFTISRDNAKNTLYLQMNSLKPEDSAVYYCAKAIWATRQYLRFTDYDYWGQGTQVTVSS | high polyreactivity |
| QVQLVESAAGLVQAGGSLRLSCAASGLILDEYAMGWYRQAPGKEMELVAAISWSGGSTYYADSVKGRFTISRDNAKNTVYLQMNSLKPEDTAVYYCAADRVWFSDNSYYYWGQGTQVTVSS | high polyreactivity |
| QVQLVESGGGLVQAGGSLRLSCAASGRIFSYYAMGWYRQAPGKERELVAGIRSGCSTNYADSVKGRFTISRDNAKNTVYLQMNSLKPEDTAVYYCAARYFKFYSKGSFRYLYESWGQGTQVTVSS | high polyreactivity |
| QVQLVESGGGLVQAGGTLRLSCAASGITFWYYARGWYRPAPGKERELVAVISYSGGIKSYADSVKGRFTISRENAKNTVNLQMNSMKPEDTAVFYCYTLYGRFKAKVYKYGSWGQGTQVTVSS | high polyreactivity |
| QVHLVESGGGLVQAGGSLRLSCAASGFIFYYYTMGWYRQAPGKEREFVAAITYSGGRTYYADSVKGRFTISRDNAKNSVYLQMNSLKPEDTSVYYCAAVPRYGPSYRMDYWGQGTQVTVSS | high polyreactivity |
| QVQLVESGGGLVQAGGSLRLSCAASGSTFVGYAMGWYRQAPGKERELVADITWSGTNTYYADSVKGRFTISRDNAKNTVYLQMNSLKPEDTAVYYCAAELELLLVGFFTYRREYWGQGTQVTVSS | low polyreactivity |
| QVQLVESGGGLVQAGGSLRLSCAASGSIFYSNAMGWYRQAPGKERELVAAITLSGRRTYYADSVKGRFTISRDNAKNTVYLQMISLKPEDTADYYCATVPYKTGYKFEYWGQGTQVTVSS | high polyreactivity |
| QVQLVESGGGLVQAGGSLRLSCAASGFTIWSYAMGWYRQAPGKERELVAAINYRGTSTYYADSVKGRFTISRDNAKNTVYLQMHSLKPEDTAVYYCAARYYTWQRPTYDYWGQGTQVTVSS | high polyreactivity |
| QVQLVESGGGLVQAGGSLRLSCAASGLTSYDYGMGWYRPAPGIERELVAAITWSGGSTYYADSVKGRFTISRDNAKNTVYLQMNSLKPEDTAVYYCAADTWGYGWYGYWGHGTQVTVSS | low polyreactivity |
| QVQLVESGGGLVQAGGSLRLSCAASGRIFSRYAMGWYRQAPGKERELVAAITRGGSTYYADSVKGRFTISRDNAKNTVYLQMNSLKPEDTAVYYCAKDGYRPDDYGYWGQGTQVTVSS | high polyreactivity |
| QVQLEESGGGLVQAGCSLRLTCAASGSTFYSYPMGWSRQAPGKERELVAAITVSGTSTYYADSVKGRFTISRDNAKNTVYLQMYSVKPEDTAVYYCAADRRTDGHDYWGQGTQVTVSS | high polyreactivity |
| QVQLVESGGGLDQAGGSLRLSCAASGSIFYAYAMGWYRQAPGKEREFVAVISRGGITNYADSVKGRFTISRDNAKNTVYLELNSLKPEDTAVYYCAAGTSAWGYLRRYGYWGQGSQVTVSS | low polyreactivity |
| QVQLVESGGGLVQAGGSLRLSCAASGLIFRYNTMGWYRQAPGKERELVAAITSSGGSTYYADSVKGRFTISRDNAKNTVYLQMNSLKPEDTAVYYCAKRSFYFSDYDYWGQGTQVTVSS | high polyreactivity |

| Sequence | polyreactivity (PSR sort gate) |
| --- | --- |
| QVHLVESGGGLVQAGGSLRLSCAASGFTFYRTAMGWYRQPPGKERELVAAITRGASTYYADSVKGRFTISRDNAKNNVYLQMNSLKPEDTAVYYCAADRYYYRGRYYGYTREFDYWGQGTQVTVSS | high polyreactivity |
| QVQLVESGGGLVQAGGSLRLSCAASGSTFRSYAMGWYRQAPGKERELVAAISSTGGSTYYADSVKCRFTISRDTAKNTVYFQMNSLKPVDTAVYYCAADFLYYEYDYWGQGTQVTVSS | low polyreactivity |
| QVQLVESGGGLVQAGGSLRLSCAASGTTIQGYAMGWYRQAPGKERELVAAISGSGGTTYYADSVKGRFTISRDNAKNTVYLQMNSLKPEDTAVYYCAAYVFYNFGVYTRGYYYWGQGTQVTVSS | high polyreactivity |
| QVQLVESGGGLVQAGGSLRLSCAASGFTFSGYAMGWYRQAPGKERELVAVIRGRGGRTYYADSVKGRFTISRDNAKNTVYLQMNSLKPEDTAVYYCAARRDAYYYVPNRFDYWGQGTQVTVSS | high polyreactivity |
| QDQLVESGGGLVQAGGSLRLSCAASGSIFAYYVMGWYRQAPGKERELVAAISKSGGSTYYADSVQGRFTISRDNAKNTVYVQRNSLKPEDPAVYYCAAPQRYPRFYYWGQGTQVTVSS | high polyreactivity |
| QVQLVESGGGLVQAGGSLRLSCAASGSIFYYYAMGWYRQAPGKERELVAAISYGGTRTYYADSVKGRFTISRDNAKNTVYLQMNSLKPEDTAVYYCAASQYSFKGRDYDYWGQGTQVTVSS | low polyreactivity |
| QVELVESGGGLVQPGGSLRLSCAASGSTFYYYAMGWYRQAPGKERELVATISSGSSTNYADSVKGRFTISRDNAKNTVYLQMNSLKPEDTAVYYCAADRWYITLSIDATISYEYWGQGTQVTVSS | low polyreactivity |
| QVQLVESGGGLVQAGGSLRLSSAASGFTFDYNTMGWDRQAPGKERELVAGISRGGGSTYYADSVKGRFTISRDNAKNTVYLQMNSLKPEDTAVYYCNTVLKRQRKNEYWGQGTQVTVSS | high polyreactivity |
| QVQLVESGGGLVQAGGSLRLSCAASGSIFWRYAMGWYRQAPGKERELVAVISRSGGRTYYADSVKGRFTISRDNAKNTVYLQMNSLKPEDTAVNYCAADYYGVYSKRYGFDYWGQGTQVTVSS | high polyreactivity |
| QVQLVESGGGLVQAGGSLRLSCAASGSIFYYNAMGWYRQAPGKERELVASISERGGITRYADSVKGRFTISRDNAKNTVYLQMNSLKREDTAVYYCNRSISLTFYAYAGYFLALDYWGQGTQVTVSS | low polyreactivity |
| QVQLVESGGGLVQAGGSLRLSCAASGITFYDYAMGWYRQAPGKERELVAAISFSGSRTYYADSVKGRFTISRDNAKNTVYLQMNSLKPEDTAVYYCAASPSTPNKYGSWGQGTQVTVSS | high polyreactivity |
| QVQLVESGGGLVQAGGSLRLSCAASGSIFYYYAMGWYRQAPGKERELVAAISRSGGSTYYADSVKGRFTISRDNAKNTVYLQMNSLKPEDTAVYYCNVAYGLQPYDYWGQGTQVTVSS | high polyreactivity |
| QVQLVESGGGLVQAGGSLRLSCAASGRIFKKNAMGWYRQAPGKERELVASITRGASTNYADSVKGRFTISRDNAKNTVYLQMNSLKPEDTAVYYCAAVITLNGDGPPSDYWGQGTQVTVSS | low polyreactivity |
| QVQLVESGGGLVQAGGSLRLSCAASGIIFSSYAMGWYRQAPGKERELVAAISTSGGRTYYADSVKGRFTISRDNAKNTVYLQMNSLKPKDTAVYYCAARYGYWGQGTQVTVSS | high polyreactivity |
| QVQLVESGGGLVQAGGSLRLSCAASGRIFVDNTMGWYRPAPGKERELVAAISRRGTSTYYADSVKGRSTISRDNAKNTVYLQMNSLKPEDTAVYYCAADYYYYDSQQGMDYWGQGTQVTVSS | high polyreactivity |
